Reference: publication PMC12508434

B1: P1-CN crRNA + P1 target dsDNA (mixed)
RNA: UAAUUUCUACUAAGUGUAGAUAACCUGAUCAAGAUACCCAA
DNA 1: CTTAGAGTTCTTTAAACCTGATCAAGATACCCAACCAAAC
DNA 2: TGTTGTTTGGTTGGGTATCTTGATCAGGTTTAAAGAACTCTAAG

What follows are binders tested against dCas12a (DNase-dead; LbCas12a implied) (Lachnospiraceae bacterium? (only 'Lb' …, UniProt A0A5S8WF58 1-1228, D832A) (assay: EMSA).
B1: binds.

Each binder was assayed against LbCas12a (Lachnospiraceae bacterium? (only 'Lb' …, UniProt A0A5S8WF58 1-1228)) (assay: SPR).
UAAUUUCUACUAAGUGUAGAUAACCUGAUCAAGAUACCCAA (structured_RNA) [P1-CN crRNA]: binds.
UAAUUUCUACAAAACGUAGAUAACCUGAUCAAGAUACCCAA (structured_RNA) [P1-L1 crRNA]: binds.
UAAUUUCUACUCAGCGUAGAUAACCUGAUCAAGAUACCCAA (structured_RNA) [P1-L2 crRNA]: binds.
GAAUGUCUACUAAGUGUAGAUAACCUGAUCAAGAUACCCAA (structured_RNA) [P1-F2 crRNA]: binds.
CAAUGUCUACUCAGCGUAGAUAACCUGAUCAAGAUACCCAA (structured_RNA) [P1-FL1 crRNA]: binds.
GAAUGUCUACUCAGCGUAGAUAACCUGAUCAAGAUACCCAA (structured_RNA) [P1-FL2 crRNA]: binds.
CAAUGUCUACUAAGUGUAGAUAACCUGAUCAAGAUACCCAA (structured_RNA) [P1-F1 crRNA]: binds.
